What all share (type): biochemical
The target of series [1] is T1, T. reesei proline tolerant tripeptidyl peptidase TRI083 (SEQ ID No. 1, SEQ ID No. 2 or SEQ ID No. 29) (Trichoderma reesei, UniProt G0RXE9).
T1 sequence (G0RXE9 198-612): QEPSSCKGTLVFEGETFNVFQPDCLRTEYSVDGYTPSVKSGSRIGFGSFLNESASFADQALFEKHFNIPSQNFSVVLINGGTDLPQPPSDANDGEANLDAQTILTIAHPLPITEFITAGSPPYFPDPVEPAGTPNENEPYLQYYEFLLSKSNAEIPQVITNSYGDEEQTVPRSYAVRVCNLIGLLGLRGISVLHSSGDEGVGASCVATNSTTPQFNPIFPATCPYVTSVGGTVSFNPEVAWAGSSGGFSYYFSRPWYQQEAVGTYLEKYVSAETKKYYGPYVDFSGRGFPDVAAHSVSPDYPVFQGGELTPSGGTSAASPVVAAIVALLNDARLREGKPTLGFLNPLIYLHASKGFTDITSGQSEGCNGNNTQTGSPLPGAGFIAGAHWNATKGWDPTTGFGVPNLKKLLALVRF
Nature of the series: Product inhibition of proline tolerant tripeptidyl peptidase TRI083 with H-Ala-Ala-Ala-pNA as substrate. Particulars: competitive inhibitor fit; substrate Ala-Ala-Ala-pNA (0-2000 nM); McIlvaine buffer pH 4.0, 50° C.; tripeptide at 3.6 mM, dipeptide at 18 mM. How it is done:
For proline tolerant tripeptidyl peptidase the chromogenic peptide H-Ala-Ala-Ala-pNA was used. The assay was conducted as follows, 27.5 μL of appropriately diluted enzyme was added to 200 μl McIlvaine buffer (20 mM, pH 4.0). After incubation at 50° C. for 5 min, 12.5 μL of the chromogenic peptide solution (5 mg/mL dissolved in dimethyl sulfoxide (DMSO); Sigma-Aldrich, Denmark) were added to the reaction mixture. The reaction was terminated by adding 50 μL of 0.5 M trichloroacetic acid (TCA; Sigma-Aldrich, Denmark). After centrifugation (15,000×g, 5 min), 240 μL of the solution were transferred to a microtiter plate (MTP; Kisker-biotech, Germany) and the absorption was measured in an MTP reader (Molecular Devices, Denmark) at 405 nm. One katal of proteolytic activity was defined as the amount of enzyme required to release 1 mol of p-nitroaniline per second. […]
The inhibition experiments were set up as described in Example 14. […] The degree of pre-hydrolysis of H-Ala-Ala-Ala-OH was determined by gas chromatography (Husek, 1991; FEBS-Letters 280, 354-356). About 0.18 mg/mL alanine was measured, which corresponds to about 54% hydrolyses of the initially applied H-Ala-Ala-Ala-OH.
Subsequently, TRI083 was analyzed for product inhibition without inhibitor, with 1 mg/mL H-Ala-Ala-Ala-OH as well with the PepN pre-hydrolyzed H-Ala-Ala-Ala-OH (1 mg/mL).

Series [2] concerns H-Ala-Ala-Ala-pNA. Nature of the series: Exopeptidase Broad-Specificity Assay (EBSA) with H-Ala-Ala-Ala-pNA; pH and temperature profile. How it is done: 10 μL of the chromogenic peptide solution (10 mM H-Ala-Ala-Ala-pNA dissolved in dimethyl sulfoxide (DMSO); MW=387.82; Bachem, Switzerland) were added to 130 μl Na-acetate (20 mM, adjusted to pH 4.0 with acetic acid) in a microtiter plate and heated for 5 minutes at 40° C. 10 μL of appropriately diluted enzyme was added and the absorption was measured in a MTP reader (Versa max, Molecular Devices, Denmark) at 405 nm. One katal of proteolytic activity was defined as the amount of enzyme required to release 1 mole of p-nitroaniline per second.
The chromogenic peptide H-Ala-Ala-Ala-pNA (MW=387.82; Bachem, Switzerland) was used to determine the activity of proline tolerant tripeptidyl peptidase in the samples produced as described above. The assay was conducted as follows, 10 μL of the chromogenic peptide solution (10 mM dissolved in dimethyl sulfoxide; DMSO) were added to 130 μl Na-acetate (20 mM, adjusted to pH 4.0 with acetic acid) in a microtiter plate and heated for 5 minutes at 40° C. 10 μL of appropriately diluted enzyme was added and the absorption was measured in an MTP reader (Versa max, Molecular Devices, Denmark) at 405 nm. One katal of proteolytic activity was defined as the amount of enzyme required to release 1 mole of p-nitroaniline per second.
The proline tolerant tripeptidyl peptidase assay described with H-Ala-Ala-Ala-pNA substrate above with modification of using the buffers 20 mM Na-glycine (pH 2.0, 2.5, 3.0, 3.5 and 4.0) or 20 mM Na-acetate buffer (pH 4.0, 4.5 and 5.5) was used to determine the pH profile of proline tolerant tripeptidyl peptidase TRI083 (FIG. 2) and TRI045 (FIG. 24)..
The proline tolerant tripeptidyl peptidase assay described above was used at temperatures 25, 50, 55, 60, 65, 70, 75, 80 and 85° C.
For proline tolerant tripeptidyl peptidase the chromogenic peptide H-Ala-Ala-Ala-pNA was used. The assay was conducted as follows, 27.5 μL of appropriately diluted enzyme was added to 200 μl McIlvaine buffer (20 mM, pH 4.0). After incubation at 50° C. for 5 min, 12.5 μL of the chromogenic peptide solution (5 mg/mL dissolved in dimethyl sulfoxide (DMSO); Sigma-Aldrich, Denmark) were added to the reaction mixture. The reaction was terminated by adding 50 μL of 0.5 M trichloroacetic acid (TCA; Sigma-Aldrich, Denmark). After centrifugation (15,000×g, 5 min), 240 μL of the solution were transferred to a microtiter plate (MTP; Kisker-biotech, Germany) and the absorption was measured in an MTP reader (Molecular Devices, Denmark) at 405 nm. One katal of proteolytic activity was defined as the amount of enzyme required to release 1 mol of p-nitroaniline per second.

Series [3] concerns whey protein (WPI, Lacprodan-9224). Nature of the series: Hydrolysis of 20% whey protein (WPI) with Alphalase FP2 and TRI083, OPA degree of hydrolysis. Particulars: FP2 0.0%. The method, then:
For whey protein hydrolysis, Lacprodan-9224 (Arla Food Ingredients, Denmark) was employed. A 20% (w/w) WPI suspension was prepared in H2Od and adjusted to pH 4.0 with acetic acid (Sigma-Aldrich, Denmark). To prevent microbial growth, 0.0285% (w/w) NaN3 was added. A volume of 200 μl of the WPI suspension was transferred into each of the 96 wells of a microtiter plate (MTP; VWR, Denmark). Subsequently, 5 μl of each consecutively diluted peptidase, Alphalase® FP2 and proline tolerant tripeptidyl peptidase (3PP=TRI083; 0-8750 nkat H-Ala-Ala-Ala-pNA/mL activity in stock solution added), were added to each well, resulting in dosages as shown in Table 1. The MTP was sealed and placed in an EMS incubator/shaker (Thermo Scientific, Denmark) at 40° C. After 24 h of incubation and shaking at 400 rpm, the hydrolyses were stopped by addition of 20 μl of 2 M trichloroacetic acid (TCA; Sigma-Aldrich, Denmark). As a reference, a plain 20% WPI (w/w) suspension was used which was treated in the same manner as the WPI hydrolyses. Unhydrolysed, precipitated WPI was removed by filtration (0.22 μm). On the filtered WPI hydrolysate o-phthaldehyde (OPA) derivatization was conducted according to Nielsen et al. (2001) with minor modifications. A sample volume of 25 μl was transferred to a well and 175 μl of OPA-reagent, dissolved in phosphate buffer pH 11, was added subsequently. The measured absorptions at 340 nm in an MTP reader (Molecular Devices, Denmark) were transformed into the relative degree of hydrolysis (DH) in per cent.
A 20% (w/w) WPI suspension hydrolysed in 6 M HCl (Sigma-Aldrich, Denmark) at 100° C. for 24 h served as reference (100% DH).

Series [4] concerns sodium caseinate. Nature of the series: 5% sodium caseinate hydrolysis with endopeptidase, TRI083 and PepN, serine equivalents. Particulars: 17,500 nkat/mL TRI083.

Peptide text beside a SMILES is read from it.

A word on the Ki: it is a measure of affinity in units of concentration, obtained from inhibition or displacement. A low value points to tighter binding. In the case of `C[C@H](N)C(=O)N[C@@H](C)C(=O)N[C@@H](C)C(=O)O` [H-Ala-Ala-Ala-OH], the affinity in series [1], expressed as Ki, was 0.34 mM.
On the same count and under the same terms, in the case of `C[C@H](N)C(=O)N[C@@H](C)C(=O)O` [H-Ala-Ala-OH] (H-Ala-Ala-OH) it was 40 mM.

B1: TRI083: proline tolerant tripeptidyl peptidase (SEQ ID No. 1, SEQ ID No. 2 or SEQ ID No. 29), expressed in Trichoderma reesei (protein)
chain: T1 sequence (G0RXE9 198-612)
As for B1, the “activity at 70° C. and higher temperatures” value in series [2] is on record as “no activity”. Moreover, in series [2] (H-Ala-Ala-Ala-pNA, 20 mM Na-glycine pH 2.0-4.0 or Na-acetate pH 4.0-5.5), the “Optimum pH” value is recorded as 4.0. In series [2] (tested at 25-85° C.), this molecule displayed an optimum temperature of 50 °C. Besides, the “Degree of hydrolysis of 20% (w/w) WPI” value in series [3] (TRI083 2,188 nkat/mL stock solution) is given as 0.5%; in series [3] (TRI083 4,375 nkat/mL stock solution), −0.9%; in series [3] (TRI083 8,375 nkat/mL stock solution) it was 1.4%. For the same molecule, the “increase of SE” value in series [4] was 18 mM.
